# Biological target: mixture of three Der p 2 specific recombinant human IgE clones H10, H12, P4E (human) (UniProt P01854)
# Experiment: RBL-SX38 IgE displacement, FACS
# mixture of three Der p 2 specific recombinant human IgE clones H10, H12, P4E (human), sequence (P01854 other isoform, or with tags, fused parts or gaps): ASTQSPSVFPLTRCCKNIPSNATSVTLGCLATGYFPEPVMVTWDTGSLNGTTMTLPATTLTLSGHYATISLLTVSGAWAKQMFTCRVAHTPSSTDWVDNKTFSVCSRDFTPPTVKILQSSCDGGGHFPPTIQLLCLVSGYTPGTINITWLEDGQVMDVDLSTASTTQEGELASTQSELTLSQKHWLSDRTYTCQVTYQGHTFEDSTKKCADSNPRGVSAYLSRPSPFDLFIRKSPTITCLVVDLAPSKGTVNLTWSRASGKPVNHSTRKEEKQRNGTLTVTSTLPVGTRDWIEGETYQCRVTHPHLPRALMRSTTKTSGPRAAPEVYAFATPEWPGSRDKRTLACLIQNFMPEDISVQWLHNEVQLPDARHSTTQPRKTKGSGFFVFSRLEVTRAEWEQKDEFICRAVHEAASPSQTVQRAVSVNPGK
EC50,Max effect/effect 1 µM,Binder
2 nM,93%,NIgG4F3A1(RS) (Fc fusion) chain 1: DVQLQESGGGLVQAGGSLKLSCAASRGSLSRWDVAWFRQAPGKERSFVTRISWSGTTSYYADAVKGRFAISRDNAKNTVYLQMNSLKPEDTAVYYCAVALYGNRGYYDVNAHSYWGQGTQVTVSRSGPPCPPCPAPEFLGGPSVFLFPPKPKDTLMISRTPEVTCVVVDVSQEDPEVQFNWYVDGVEVHNAKTKPREEQFNSTYRVVSVLTVLHQDWLNGKEYKCKVSNKGLPSSIEKTISKAKGQPREPQVYTLPPCQEEMTKNQVSLWCLVKGFYPSDIAVEWESNGQPENNYKTTPPVLDSDGSFFLYSRLTVDKSRWQEGNVFSCSVMHEALHNHYTQKSLSLSLGK chain 2: EVQLLESGGGLVQPGGSLRLSCAASGFTFGNYDMAWVRQAPGKRPEWVSSIDTGGDITHYADSVKGRFTISRDNAKNTLYLQMNSLRPEDTAVYWCATDEEYALGPNEFDYYGQGTLVTVSSRSGPPCPPCPAPEFLGGPSVFLFPPKPKDTLMISRTPEVTCVVVDVSQEDPEVQFNWYVDGVEVHNAKTKPREEQFNSTYRVVSVLTVLHQDWLNGKEYKCKVSNKGLPSSIEKTISKAKGQPREPQVCTLPPSQEEMTKNQVSLSCAVKGFYPSDIAVEWESNGQPENNYKTTPPVLDSDGSFFLVSRLTVDKSRWQEGNVFSCSVMHEALHNHYTQKSLSLSLGK
0.9 nM,94%,NIgG4F3A1(G4S)3 (Fc fusion) chain 1: DVQLQESGGGLVQAGGSLKLSCAASRGSLSRWDVAWFRQAPGKERSFVTRISWSGTTSYYADAVKGRFAISRDNAKNTVYLQMNSLKPEDTAVYYCAVALYGNRGYYDVNAHSYWGQGTQVTVSGGGGSGGGGSGGGGSGPPCPPCPAPEFLGGPSVFLFPPKPKDTLMISRTPEVTCVVVDVSQEDPEVQFNWYVDGVEVHNAKTKPREEQFNSTYRVVSVLTVLHQDWLNGKEYKCKVSNKGLPSSIEKTISKAKGQPREPQVYTLPPCQEEMTKNQVSLWCLVKGFYPSDIAVEWESNGQPENNYKTTPPVLDSDGSFFLYSRLTVDKSRWQEGNVFSCSVMHEALHNHYTQKSLSLSLGK chain 2: EVQLLESGGGLVQPGGSLRLSCAASGFTFGNYDMAWVRQAPGKRPEWVSSIDTGGDITHYADSVKGRFTISRDNAKNTLYLQMNSLRPEDTAVYWCATDEEYALGPNEFDYYGQGTLVTVSSGGGGSGGGGSGGGGSGPPCPPCPAPEFLGGPSVFLFPPKPKDTLMISRTPEVTCVVVDVSQEDPEVQFNWYVDGVEVHNAKTKPREEQFNSTYRVVSVLTVLHQDWLNGKEYKCKVSNKGLPSSIEKTISKAKGQPREPQVCTLPPSQEEMTKNQVSLSCAVKGFYPSDIAVEWESNGQPENNYKTTPPVLDSDGSFFLVSRLTVDKSRWQEGNVFSCSVMHEALHNHYTQKSLSLSLGK

# Second part, the binder before the results:
Binder,EC50,Max effect/effect 1 µM
NIgG4F3A1(G4S)1 (Fc fusion) chain 1: DVQLQESGGGLVQAGGSLKLSCAASRGSLSRWDVAWFRQAPGKERSFVTRISWSGTTSYYADAVKGRFAISRDNAKNTVYLQMNSLKPEDTAVYYCAVALYGNRGYYDVNAHSYWGQGTQVTVSGGGGSGPPCPPCPAPEFLGGPSVFLFPPKPKDTLMISRTPEVTCVVVDVSQEDPEVQFNWYVDGVEVHNAKTKPREEQFNSTYRVVSVLTVLHQDWLNGKEYKCKVSNKGLPSSIEKTISKAKGQPREPQVYTLPPCQEEMTKNQVSLWCLVKGFYPSDIAVEWESNGQPENNYKTTPPVLDSDGSFFLYSRLTVDKSRWQEGNVFSCSVMHEALHNHYTQKSLSLSLGK chain 2: EVQLLESGGGLVQPGGSLRLSCAASGFTFGNYDMAWVRQAPGKRPEWVSSIDTGGDITHYADSVKGRFTISRDNAKNTLYLQMNSLRPEDTAVYWCATDEEYALGPNEFDYYGQGTLVTVSSGGGGSGPPCPPCPAPEFLGGPSVFLFPPKPKDTLMISRTPEVTCVVVDVSQEDPEVQFNWYVDGVEVHNAKTKPREEQFNSTYRVVSVLTVLHQDWLNGKEYKCKVSNKGLPSSIEKTISKAKGQPREPQVCTLPPSQEEMTKNQVSLSCAVKGFYPSDIAVEWESNGQPENNYKTTPPVLDSDGSFFLVSRLTVDKSRWQEGNVFSCSVMHEALHNHYTQKSLSLSLGK,2 nM,93%
CIgG4F2A1(G4S)3 (Fc fusion) chain 1: GPPCPPCPAPEFLGGPSVFLFPPKPKDTLMISRTPEVTCVVVDVSQEDPEVQFNWYVDGVEVHNAKTKPREEQFNSTYRVVSVLTVLHQDWLNGKEYKCKVSNKGLPSSIEKTISKAKGQPREPQVYTLPPCQEEMTKNQVSLWCLVKGFYPSDIAVEWESNGQPENNYKTTPPVLDSDGSFFLYSRLTVDKSRWQEGNVFSCSVMHEALHNHYTQKSLSLSLGKGGGGSGGGGSGGGGSDVQLQESGGGLVQAGGSLKLSCAASGGSLSRYDMGWFRQAPGKEREFVARISWSGDTKYYADAVEGRFAISRDNAQNTVYLQMNSLKPEDTAVYYCAVALYGNRGYYDVNTYSYWGQGTRVTVS chain 2: GPPCPPCPAPEFLGGPSVFLFPPKPKDTLMISRTPEVTCVVVDVSQEDPEVQFNWYVDGVEVHNAKTKPREEQFNSTYRVVSVLTVLHQDWLNGKEYKCKVSNKGLPSSIEKTISKAKGQPREPQVCTLPPSQEEMTKNQVSLSCAVKGFYPSDIAVEWESNGQPENNYKTTPPVLDSDGSFFLVSRLTVDKSRWQEGNVFSCSVMHEALHNHYTQKSLSLSLGKGGGGSGGGGSGGGGSEVQLLESGGGLVQPGGSLRLSCAASGFTFGNYDMAWVRQAPGKRPEWVSSIDTGGDITHYADSVKGRFTISRDNAKNTLYLQMNSLRPEDTAVYWCATDEEYALGPNEFDYYGQGTLVTVSS,,2%
CIgG4F3A1(RS) (Fc fusion) chain 1: GPPCPPCPAPEFLGGPSVFLFPPKPKDTLMISRTPEVTCVVVDVSQEDPEVQFNWYVDGVEVHNAKTKPREEQFNSTYRVVSVLTVLHQDWLNGKEYKCKVSNKGLPSSIEKTISKAKGQPREPQVYTLPPCQEEMTKNQVSLWCLVKGFYPSDIAVEWESNGQPENNYKTTPPVLDSDGSFFLYSRLTVDKSRWQEGNVFSCSVMHEALHNHYTQKSLSLSLGKRSDVQLQESGGGLVQAGGSLKLSCAASRGSLSRWDVAWFRQAPGKERSFVTRISWSGTTSYYADAVKGRFAISRDNAKNTVYLQMNSLKPEDTAVYYCAVALYGNRGYYDVNAHSYWGQGTQVTVS chain 2: GPPCPPCPAPEFLGGPSVFLFPPKPKDTLMISRTPEVTCVVVDVSQEDPEVQFNWYVDGVEVHNAKTKPREEQFNSTYRVVSVLTVLHQDWLNGKEYKCKVSNKGLPSSIEKTISKAKGQPREPQVCTLPPSQEEMTKNQVSLSCAVKGFYPSDIAVEWESNGQPENNYKTTPPVLDSDGSFFLVSRLTVDKSRWQEGNVFSCSVMHEALHNHYTQKSLSLSLGKRSEVQLLESGGGLVQPGGSLRLSCAASGFTFGNYDMAWVRQAPGKRPEWVSSIDTGGDITHYADSVKGRFTISRDNAKNTLYLQMNSLRPEDTAVYWCATDEEYALGPNEFDYYGQGTLVTVSS,,9%
NIgG4F3A1(G4S)2 (Fc fusion) chain 1: DVQLQESGGGLVQAGGSLKLSCAASRGSLSRWDVAWFRQAPGKERSFVTRISWSGTTSYYADAVKGRFAISRDNAKNTVYLQMNSLKPEDTAVYYCAVALYGNRGYYDVNAHSYWGQGTQVTVSGGGGSGGGGSGPPCPPCPAPEFLGGPSVFLFPPKPKDTLMISRTPEVTCVVVDVSQEDPEVQFNWYVDGVEVHNAKTKPREEQFNSTYRVVSVLTVLHQDWLNGKEYKCKVSNKGLPSSIEKTISKAKGQPREPQVYTLPPCQEEMTKNQVSLWCLVKGFYPSDIAVEWESNGQPENNYKTTPPVLDSDGSFFLYSRLTVDKSRWQEGNVFSCSVMHEALHNHYTQKSLSLSLGK chain 2: EVQLLESGGGLVQPGGSLRLSCAASGFTFGNYDMAWVRQAPGKRPEWVSSIDTGGDITHYADSVKGRFTISRDNAKNTLYLQMNSLRPEDTAVYWCATDEEYALGPNEFDYYGQGTLVTVSSGGGGSGGGGSGPPCPPCPAPEFLGGPSVFLFPPKPKDTLMISRTPEVTCVVVDVSQEDPEVQFNWYVDGVEVHNAKTKPREEQFNSTYRVVSVLTVLHQDWLNGKEYKCKVSNKGLPSSIEKTISKAKGQPREPQVCTLPPSQEEMTKNQVSLSCAVKGFYPSDIAVEWESNGQPENNYKTTPPVLDSDGSFFLVSRLTVDKSRWQEGNVFSCSVMHEALHNHYTQKSLSLSLGK,2 nM,95%
